Data as given in paper PMC13087489.

Target: CsERF061 (Citrus sinensis? (blood orange), UniProt A0ACB8LNY5 1-312)
Test: EMSA

B1: RE-mut-probe (dsDNA)
DNA 1: TGTCAAAAAAAAAAGCCACAAGGCAAATTCAAGTTG
DNA 2: CAACTTGAATTTGCCTTGTGGCTTTTTTTTTTGACA
binding result: no binding
